What was measured:
Experiment in all cases: ELISA: SEAP-His proteins (1 nM) captured on anti-6-His antibody, antibody A 10 µg/mL with human IgG 100 µg/mL, HRP anti-mouse IgG, OD450 as % of human EphA4-SEAP-His
[1] = molecular target: T1, human EphA3 extracellular region-SEAP-His protein (human, UniProt P29320 21-541)
T1 construct: extracellular domain; also called Eph receptor extracellular region-SEAP-His protein; not shown: secretory alkaline phosphatase (SEAP); histidine tag
T1 sequence (looked up): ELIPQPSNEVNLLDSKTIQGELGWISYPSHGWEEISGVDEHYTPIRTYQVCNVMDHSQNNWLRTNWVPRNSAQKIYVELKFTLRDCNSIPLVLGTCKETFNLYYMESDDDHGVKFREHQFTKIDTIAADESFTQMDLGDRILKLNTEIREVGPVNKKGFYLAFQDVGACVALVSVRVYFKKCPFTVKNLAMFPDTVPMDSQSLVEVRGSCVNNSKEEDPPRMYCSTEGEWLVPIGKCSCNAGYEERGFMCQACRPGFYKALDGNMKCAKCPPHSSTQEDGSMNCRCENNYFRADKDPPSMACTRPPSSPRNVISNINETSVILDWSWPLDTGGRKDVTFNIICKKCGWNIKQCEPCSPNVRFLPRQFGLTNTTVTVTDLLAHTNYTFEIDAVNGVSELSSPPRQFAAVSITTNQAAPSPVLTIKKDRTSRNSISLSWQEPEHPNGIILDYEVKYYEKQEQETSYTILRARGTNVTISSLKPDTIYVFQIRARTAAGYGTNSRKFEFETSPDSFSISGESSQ
Procedure: (§1) Rabbit anti-6-His antibodies (Bethel Laboratories) were coated onto the wells of a 96-well plate (Nunc). After incubating at 4° C. overnight, the wells were blocked at room temperature for 1 hour by 1% Block Ace (DS Pharma Biomedical). After washing 3 times with 0.05% Tween 20/PBS (Thermo […]), each Eph receptor of human extracellular region-SEAP-His protein (final concentration 1 nM) was seeded into each well, and incubated at room temperature for 1 hour. After washing 3 times, human IgG solution (100 μg/mL, Mitsubishi Pharma Corporation) and antibody A (10 μg/mL) were supplemented to the wells, and incubated at room temperature for 1 hour. Horseradish peroxidase-labeled donkey anti-mouse IgG antibody (Jackson ImmunoResearch Laboratories) was added, and incubated at room, temperature for 1 hour. After washing 3 times, TMBZ (3,3′,5,5′-tetramethylbenzidine, Sigma) solution was added to the wells, and upon confirmation of modest coloring, an equal amount of quenching solution (1 N H₂SO₄, Wako Pure Chemicals) was added to the wells, and absorbance at 450 nm was read by a microplate reader (PerkinElmer).

[2] = molecular target: T2, human EphA7 extracellular region-SEAP-His protein (human, UniProt Q15375 28-555)
T2 construct: extracellular domain; also called Eph receptor extracellular region-SEAP-His protein; not shown: secretory alkaline phosphatase (SEAP); histidine tag
T2 sequence (looked up): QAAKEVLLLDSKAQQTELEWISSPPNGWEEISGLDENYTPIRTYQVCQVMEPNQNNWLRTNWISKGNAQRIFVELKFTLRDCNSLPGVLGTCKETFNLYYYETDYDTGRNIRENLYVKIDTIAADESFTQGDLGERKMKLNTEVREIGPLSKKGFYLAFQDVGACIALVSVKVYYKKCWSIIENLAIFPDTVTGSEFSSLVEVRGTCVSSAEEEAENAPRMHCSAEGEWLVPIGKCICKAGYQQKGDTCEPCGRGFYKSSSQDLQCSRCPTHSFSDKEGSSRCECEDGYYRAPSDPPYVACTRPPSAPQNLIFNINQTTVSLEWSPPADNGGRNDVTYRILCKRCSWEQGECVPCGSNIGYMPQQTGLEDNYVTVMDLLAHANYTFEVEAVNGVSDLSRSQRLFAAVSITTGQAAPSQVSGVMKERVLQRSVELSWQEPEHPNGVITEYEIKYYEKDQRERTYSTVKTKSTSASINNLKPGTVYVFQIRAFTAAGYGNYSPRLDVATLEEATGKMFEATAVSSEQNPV
Procedure: as §1

[3] = molecular target: T3, human EphB3 extracellular region-SEAP-His protein (human, UniProt P54753 34-559)
T3 construct: extracellular domain; also called Eph receptor extracellular region-SEAP-His protein; not shown: secretory alkaline phosphatase (SEAP); histidine tag
T3 sequence (looked up): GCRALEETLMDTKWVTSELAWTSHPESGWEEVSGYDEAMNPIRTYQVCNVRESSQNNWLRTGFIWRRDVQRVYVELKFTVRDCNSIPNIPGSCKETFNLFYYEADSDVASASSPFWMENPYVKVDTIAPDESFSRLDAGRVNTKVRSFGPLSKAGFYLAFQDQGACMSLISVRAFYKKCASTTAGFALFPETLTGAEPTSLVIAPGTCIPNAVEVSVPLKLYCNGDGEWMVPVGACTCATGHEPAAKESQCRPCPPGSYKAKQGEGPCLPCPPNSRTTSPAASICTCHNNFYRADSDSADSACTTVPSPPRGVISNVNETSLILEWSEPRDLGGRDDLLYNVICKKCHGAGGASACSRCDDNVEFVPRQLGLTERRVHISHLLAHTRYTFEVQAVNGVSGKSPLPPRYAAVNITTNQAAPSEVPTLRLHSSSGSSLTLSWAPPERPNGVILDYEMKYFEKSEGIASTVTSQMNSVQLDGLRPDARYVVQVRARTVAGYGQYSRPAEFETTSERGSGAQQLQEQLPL
Procedure: as §1

Measured: binding result

B1: mouse anti-EphA4 monoclonal antibody (antibody A) (antibody, mouse IgG1, kappa, V domains shown)
VH: QVQLKQSGPSLVQPSQSLSITCTVSGFSLTRYGVHWVRQSPGKGLEWLGVIWRGGSTDYNAAFMSRLSITKDNSKSQVFFKMNSLQADDTAIYYCAKESLFGVYYDYGYYSMDYWGQGTSVTVSS
VL: DIQMTQSPSSLSASLGERVSLTCRASQEISGYLSWLQQKPDGTIKRLIYAASTLDSGVPKRFSGSRSGSDYSLTISSLESEDFADYYCLQYASYPLTFGAGTKLELKR
notes: purified from hybridoma supernatant
no binding (tested: 10 µg/mL): [1] | [2] | [3]
